The values that follow are results of earlier work, collected in publication PMC10648573.

pKd: −log10 of the molar value. Like-named read-outs stand apart in the source and are kept apart here.

Data set [1] deals with NGALR 1-105 (Homo sapiens) (UniProt Q8WUG5).
For the next data set, the target named is 24p3R (Homo sapiens) (UniProt Q8WUG5).
For the next data set, the target named is megalin (Homo sapiens) (UniProt P98164).
Data set [2] concerns the target NGALR 1-105 (Homo sapiens) (UniProt Q8WUG5). This is another data set of the same source.

Sequence of UniProt P98164 (P98164 26-4423): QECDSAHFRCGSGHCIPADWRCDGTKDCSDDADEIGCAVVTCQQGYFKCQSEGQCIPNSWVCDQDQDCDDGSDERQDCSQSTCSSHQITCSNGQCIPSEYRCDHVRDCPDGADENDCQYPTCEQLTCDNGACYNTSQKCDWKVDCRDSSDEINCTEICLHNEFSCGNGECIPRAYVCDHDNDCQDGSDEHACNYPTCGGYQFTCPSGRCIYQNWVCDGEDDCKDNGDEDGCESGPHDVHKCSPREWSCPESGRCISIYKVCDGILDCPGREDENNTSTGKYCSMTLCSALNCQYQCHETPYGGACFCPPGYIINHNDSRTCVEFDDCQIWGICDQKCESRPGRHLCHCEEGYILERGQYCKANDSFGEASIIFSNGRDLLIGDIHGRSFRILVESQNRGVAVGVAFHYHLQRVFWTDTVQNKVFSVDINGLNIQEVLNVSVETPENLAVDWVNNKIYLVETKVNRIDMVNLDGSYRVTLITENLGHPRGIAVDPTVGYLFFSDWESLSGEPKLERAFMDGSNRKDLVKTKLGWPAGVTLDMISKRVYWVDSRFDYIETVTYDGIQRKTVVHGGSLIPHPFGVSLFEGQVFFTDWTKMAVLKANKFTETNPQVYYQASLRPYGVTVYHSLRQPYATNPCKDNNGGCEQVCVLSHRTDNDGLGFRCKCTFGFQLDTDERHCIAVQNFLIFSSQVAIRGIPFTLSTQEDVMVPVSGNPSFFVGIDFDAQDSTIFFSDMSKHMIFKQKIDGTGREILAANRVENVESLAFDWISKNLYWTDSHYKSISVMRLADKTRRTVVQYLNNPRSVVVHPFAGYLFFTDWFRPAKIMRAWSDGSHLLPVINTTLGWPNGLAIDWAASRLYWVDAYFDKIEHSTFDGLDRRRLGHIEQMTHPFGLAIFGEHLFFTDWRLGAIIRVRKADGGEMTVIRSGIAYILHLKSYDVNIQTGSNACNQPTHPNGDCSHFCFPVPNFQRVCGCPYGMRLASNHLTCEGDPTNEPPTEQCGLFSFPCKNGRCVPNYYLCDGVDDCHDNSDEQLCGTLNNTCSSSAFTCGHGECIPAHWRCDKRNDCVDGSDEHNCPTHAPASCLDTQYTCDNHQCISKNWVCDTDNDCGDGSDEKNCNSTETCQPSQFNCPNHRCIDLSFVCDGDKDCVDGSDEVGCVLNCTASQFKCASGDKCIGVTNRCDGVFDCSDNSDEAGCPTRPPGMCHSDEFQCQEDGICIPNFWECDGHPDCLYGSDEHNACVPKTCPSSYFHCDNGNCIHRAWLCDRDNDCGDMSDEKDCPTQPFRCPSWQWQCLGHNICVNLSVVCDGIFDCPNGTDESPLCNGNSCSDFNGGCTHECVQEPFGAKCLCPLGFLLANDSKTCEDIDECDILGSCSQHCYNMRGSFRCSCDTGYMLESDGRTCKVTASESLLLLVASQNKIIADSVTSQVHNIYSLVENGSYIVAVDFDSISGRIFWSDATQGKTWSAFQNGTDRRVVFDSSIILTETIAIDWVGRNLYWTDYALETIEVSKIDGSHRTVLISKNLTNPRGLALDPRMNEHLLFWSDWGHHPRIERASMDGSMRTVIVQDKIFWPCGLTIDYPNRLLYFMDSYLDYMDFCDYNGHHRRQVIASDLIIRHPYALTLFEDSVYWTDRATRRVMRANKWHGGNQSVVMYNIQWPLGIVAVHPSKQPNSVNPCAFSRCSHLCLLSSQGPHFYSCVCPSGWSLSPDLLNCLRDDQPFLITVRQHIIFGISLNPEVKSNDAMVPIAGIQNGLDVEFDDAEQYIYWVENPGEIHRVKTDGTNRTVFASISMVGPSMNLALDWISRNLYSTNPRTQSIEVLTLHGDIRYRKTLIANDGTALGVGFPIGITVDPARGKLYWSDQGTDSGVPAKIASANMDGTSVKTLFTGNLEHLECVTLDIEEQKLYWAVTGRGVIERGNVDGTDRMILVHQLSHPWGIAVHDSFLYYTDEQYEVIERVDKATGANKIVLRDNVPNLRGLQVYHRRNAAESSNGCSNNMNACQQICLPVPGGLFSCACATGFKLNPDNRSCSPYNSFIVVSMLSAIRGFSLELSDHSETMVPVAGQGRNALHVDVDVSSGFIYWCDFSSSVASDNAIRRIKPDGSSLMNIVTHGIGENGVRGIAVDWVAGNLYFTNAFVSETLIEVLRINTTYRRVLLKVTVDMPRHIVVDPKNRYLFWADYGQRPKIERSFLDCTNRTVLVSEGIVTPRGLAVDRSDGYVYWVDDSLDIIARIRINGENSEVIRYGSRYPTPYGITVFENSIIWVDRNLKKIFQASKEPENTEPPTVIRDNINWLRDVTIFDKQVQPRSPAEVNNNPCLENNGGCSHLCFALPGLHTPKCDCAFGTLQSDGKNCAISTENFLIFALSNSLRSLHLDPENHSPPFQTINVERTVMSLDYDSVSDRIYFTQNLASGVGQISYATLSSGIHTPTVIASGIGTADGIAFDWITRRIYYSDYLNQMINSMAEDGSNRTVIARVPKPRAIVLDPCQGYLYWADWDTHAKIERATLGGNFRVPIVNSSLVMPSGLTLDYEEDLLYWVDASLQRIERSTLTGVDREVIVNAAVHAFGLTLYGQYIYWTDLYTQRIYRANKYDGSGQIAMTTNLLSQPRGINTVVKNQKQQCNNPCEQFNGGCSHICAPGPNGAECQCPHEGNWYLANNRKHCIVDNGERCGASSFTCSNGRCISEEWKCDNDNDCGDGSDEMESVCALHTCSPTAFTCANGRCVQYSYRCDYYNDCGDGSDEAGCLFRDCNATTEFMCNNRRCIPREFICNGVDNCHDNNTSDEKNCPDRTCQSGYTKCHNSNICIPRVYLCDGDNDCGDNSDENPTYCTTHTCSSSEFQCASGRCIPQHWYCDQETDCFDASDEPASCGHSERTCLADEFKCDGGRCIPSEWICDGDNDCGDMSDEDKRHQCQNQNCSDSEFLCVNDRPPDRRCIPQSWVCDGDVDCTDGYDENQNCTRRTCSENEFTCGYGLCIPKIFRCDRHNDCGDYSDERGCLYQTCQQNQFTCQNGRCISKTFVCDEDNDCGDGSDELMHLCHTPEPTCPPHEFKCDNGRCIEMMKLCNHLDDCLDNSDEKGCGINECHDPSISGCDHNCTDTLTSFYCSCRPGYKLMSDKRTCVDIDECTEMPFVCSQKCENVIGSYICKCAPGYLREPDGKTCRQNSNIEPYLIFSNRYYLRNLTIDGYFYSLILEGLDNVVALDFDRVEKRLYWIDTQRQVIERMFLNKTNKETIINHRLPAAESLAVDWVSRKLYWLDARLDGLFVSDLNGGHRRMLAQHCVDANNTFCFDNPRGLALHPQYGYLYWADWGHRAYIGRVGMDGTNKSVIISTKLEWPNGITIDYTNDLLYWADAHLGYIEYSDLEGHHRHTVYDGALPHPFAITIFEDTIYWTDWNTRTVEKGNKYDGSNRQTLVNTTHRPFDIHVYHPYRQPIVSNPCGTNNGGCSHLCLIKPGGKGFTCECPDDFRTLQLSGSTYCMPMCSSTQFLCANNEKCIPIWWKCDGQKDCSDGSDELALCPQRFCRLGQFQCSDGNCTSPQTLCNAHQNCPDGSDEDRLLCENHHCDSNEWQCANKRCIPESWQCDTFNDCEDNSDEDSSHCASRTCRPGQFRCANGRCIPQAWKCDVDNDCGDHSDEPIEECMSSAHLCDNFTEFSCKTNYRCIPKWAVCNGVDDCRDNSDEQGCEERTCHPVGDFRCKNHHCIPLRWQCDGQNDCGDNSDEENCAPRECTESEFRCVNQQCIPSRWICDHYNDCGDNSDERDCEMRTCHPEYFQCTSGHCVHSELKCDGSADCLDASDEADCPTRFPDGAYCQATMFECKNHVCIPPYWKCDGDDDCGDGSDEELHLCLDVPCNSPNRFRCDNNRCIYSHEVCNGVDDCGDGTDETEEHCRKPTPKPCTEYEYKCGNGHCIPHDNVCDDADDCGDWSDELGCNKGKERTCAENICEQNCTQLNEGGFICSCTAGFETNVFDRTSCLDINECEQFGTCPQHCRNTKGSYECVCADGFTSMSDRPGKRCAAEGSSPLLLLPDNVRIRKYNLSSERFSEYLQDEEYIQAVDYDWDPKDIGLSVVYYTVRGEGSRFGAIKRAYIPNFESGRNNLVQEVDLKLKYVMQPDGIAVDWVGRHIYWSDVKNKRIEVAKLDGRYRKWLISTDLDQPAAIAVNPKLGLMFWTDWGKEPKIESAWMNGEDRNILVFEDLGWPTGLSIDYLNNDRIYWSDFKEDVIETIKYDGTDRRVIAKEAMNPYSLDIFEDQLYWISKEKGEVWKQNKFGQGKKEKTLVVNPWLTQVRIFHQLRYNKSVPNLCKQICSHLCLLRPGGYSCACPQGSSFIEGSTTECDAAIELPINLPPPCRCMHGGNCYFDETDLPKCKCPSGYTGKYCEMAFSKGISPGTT

For the substance Lipocalin-2 (apo) (from UniProt P80188), the pKd in data set [1] is 5.07.

Take Lipocalin-2 (from UniProt P80188): the pKd is 10.04 in the data set with 24p3R (Homo sapiens), 7.22 with megalin (Homo sapiens) and 4.70 in data set [2].

In general, pKd refers to −log10 of the Kd, conventionally taken in molar units.
